Test results from patent US20090010911A1, “METHODS AND COMPOSITIONS FOR AFFECTING CYCLOPHILIN A REGULATION OF KINASES IN MODULATING CELLULAR ACTIVITIES” (IOWA STATE UNIVERSITY RESEARCH FOUNDATION, INC., priority 2007, published 2009).

Columns and labels:
Lck kinase domain = test: Pull-down assay of Lck kinase domain with Itk SH2 domain; format: binding; conditions: anti-Myc immunoprecipitation, anti-His blot
Description: The Itk SH2 domains were immunoprecipitated using an anti-Myc antibody and the samples were western blotted with an anti-His antibody to detect the presence of the Lck kinase domain. Lanes 1 and 2 are beads alone control.
The samples were washed, boiled, resolved on an SDS-PAGE gel, transferred to PVDF membrane and western blotted with an anti-His antibody (clone HIS.H8 from Upstate). • (1) Wilcox, H. M., and Berg, L. J. (2003) Itk phosphorylation sites are required for functional activity in primary T cells. J Biol Chem 278, 37112-21. • (2) Hawkins, J., and Marcy, A. (2001) Characterization of Itk tyrosine kinase: contribution of noncatalytic domains to enzymatic activity. Protein Expr Purif 22, 211-9.

full length Itk = target: T1, full length Itk (Mus musculus, UniProt Q03526); test: In vitro Itk kinase assay using Peptide B as the substrate (initial velocities); format: biochemical; conditions: full length Itk
T1 construct: made in house; host or cells: Sf9 insect cells (baculovirus), co-infected 1:1 with Lck baculovirus
T1 sequence (Q03526 1-625): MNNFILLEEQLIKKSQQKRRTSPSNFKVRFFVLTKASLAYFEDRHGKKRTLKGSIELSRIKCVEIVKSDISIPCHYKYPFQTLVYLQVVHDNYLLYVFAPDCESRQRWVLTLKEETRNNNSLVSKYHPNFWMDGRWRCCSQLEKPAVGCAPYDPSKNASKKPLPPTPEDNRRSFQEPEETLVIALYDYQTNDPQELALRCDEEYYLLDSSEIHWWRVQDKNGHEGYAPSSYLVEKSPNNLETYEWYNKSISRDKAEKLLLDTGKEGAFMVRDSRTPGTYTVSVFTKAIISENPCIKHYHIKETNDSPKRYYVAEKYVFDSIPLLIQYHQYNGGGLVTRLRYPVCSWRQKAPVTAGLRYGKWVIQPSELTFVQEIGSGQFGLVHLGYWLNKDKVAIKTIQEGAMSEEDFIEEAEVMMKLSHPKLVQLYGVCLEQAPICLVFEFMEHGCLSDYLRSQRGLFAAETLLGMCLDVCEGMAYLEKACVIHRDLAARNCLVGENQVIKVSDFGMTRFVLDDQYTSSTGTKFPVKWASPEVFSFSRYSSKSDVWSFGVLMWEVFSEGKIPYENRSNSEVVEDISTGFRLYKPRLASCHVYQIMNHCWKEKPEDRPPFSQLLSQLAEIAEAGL
Protocol: Substrate used in each experiment is indicated above each set of blots. 4(a) (left) Itk 32 substrate was incubated with Itk full-length enzyme as before (lane 1), or with Itk 32 domain:free Itk SH2 domain in ratios of 1:10, 1:25 or 1:50 (lanes 2-4, respectively) or equivalent ratios of PI3K N-terminal SH2 domain (lanes 5-7) and subjected to an in vitro kinase assay. […] Coomassie stain and an anti-FLAG blot (bottom panels) show protein levels. (right) The PLCγ1 SH2 domain competes with the PLCγ1 substrate in a similar manner. Lane 1 contains only Itk enzyme and PLCγ1 SH2C-Y783-substrate without additional free SH2 domain. Ratios of free SH2 domain to substrate are 1:5, 1:10 or 1:50 in lanes 2-4, respectively and equivalent ratios of PI3K SH2 domain are used in lanes 5-7. Coomassie stain of the gel and an anti-Itk blot (bottom panels) show protein levels. 4(b) Same experiment as shown in (a) using the Grb2 SH2 domain as a control. (left) Itk 32 substrate was incubated with Itk full-length enzyme (lane 1), or with Itk 32 domain:free Itk SH2 domain in ratios of 1:10 and 1:25 (lanes 2 & 3) or equivalent ratios of Grb2 SH2 domain (lanes 4 & 5) and subjected to an in vitro kinase assay. […]
The ratio of CypA to Itk varied between o and 100 times excess CypA. […] No change in Peptide B phosphorylation is detected. […]

B1: Itk SH2 domain: isolated exogenous SH2 domain of Itk, purified from bacteria (protein)
chain: EWYNKSISRDKAEKLLLDTGKEGAFMVRDSRTPGTYTVSVFTKAIISENPCIKHYHIKETNDSPKRYYVAEKYVFDSIPLLIQYHQYNGGGLVTRLRYPVCSWRQKA
interaction with Lck kinase domain (pull-down) (Lck kinase domain): direct interaction
levels of peptide B phosphorylation (initial velocity) with increasing concentrations of SH2 domain (full length Itk): do not change significantly
